± gives the standard deviation of the averaged measurements.
Test system: ATP
Experiment: switch fluorescence ratio, 500 uM ATP over buffer (Cy3 cluster intensity, sum of 5 cycles each) (fold (ratio)); higher = stronger signal-on switching upon ATP binding; sequences stand for … in TCGTCGGCAGCGTCAGATGTGTATAAGAGACAGTTTTTTTTTTTTTTTTTTTTTTTTT…TC
Conditions: aptamer strand: ATP DNA aptamer (quencher-CACCTGGGGGAGTATTGCGGAGGAAGG + anchor), 100 nM annealed; ATP concentration: 500 uM
Procedure, shortened: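 Clusters carrying Cy3-labelled switching strands on a modified Illumina MiSeq flow-cell were annealed to 100 nM quencher-labelled ATP aptamer and imaged in selection buffer. They were imaged again after 15 min with 500 uM ATP at 22 °C, over five buffer/ATP cycles with NaOH stripping and re-annealing in between. For each cluster, the fluorescence ratio is the summed Cy3 intensity of the target cycles divided by that of the buffer cycles, averaged per switch-domain sequence. Clusters outside 100-1000 RFU were left out.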
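Also: ATP exposure 15 min at 22 °C before imaging.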

Sequence	switch fluorescence ratio
TAATCATCGA	0.99 ± 0.017
GGATTAGTGA	0.964 ± 0.036
GCTATGCCTA	0.997 ± 0.023
AGCTGAGGAG	1.0063 ± 7.3e-05
CACTTGGAAG	1 ± 0.028
TACAATTTGA	0.954 ± 0.018
AACTCAAGGG	1.0096 ± 0.00058
AAAAGGGAGT	0.972 ± 0.013
TACGGTAGGA	0.9836 ± 0.006
TGAGGTTAGT	1.09 ± 0.19
TACAACATTT	1.06 ± 0.015
TTGGTGATTG	0.976 ± 0.014
CACGTTTGGG	1.01 ± 0.027
ATATATAGTT	1.043 ± 0.01
AATCTGTTCG	0.9708 ± 0.004
AAAGGGCGTG	0.985 ± 0.022
GTTAGGTAGC	0.997 ± 0.011
GATTTGGACG	1.01 ± 0.028
TTATGGGGGG	1.01 ± 0.042
GAGTCGAGTG	1.01 ± 0.048
GGTATATCTT	1.01 ± 0.076
CGGGGAGTGT	1 ± 0.043
CAGTTATTCG	0.977 ± 0.014
TGTTTTTTTT	0.999 ± 0.029
CGAGCTTCGT	1.01 ± 0.034

Sequence	switch fluorescence ratio
TTGGACAGGG	1 ± 0.02
CATTCGTCGG	1.044 ± 0.0031
CTACATCTTA	1.02 ± 0.018
TCGGGGGGCC	1.02 ± 0.074
TGGGTTCGGA	0.985 ± 0.023
TTTAGGATAA	1.02 ± 0.013
TTCATGGGGT	1.04 ± 0.033
TAAAAAGGAC	0.9809 ± 0.008
TGCTGGGTAT	0.9954 ± 0.0031
GTGGGGTCGT	0.926 ± 0.045
AGGTTGAAG	0.976 ± 0.034
GAGCAAGGTT	1.24 ± 0.2
GTTAGTCTGA	1.01 ± 0.043
GGAATTATTG	1.08 ± 0.15
AACGTGACAG	1.06 ± 0.046
ACTTGTGCAG	0.978 ± 0.026
TTTGTGATGG	0.954 ± 0.026
TCGGAGTTAG	1.04 ± 0.022
TTAAAGTCGG	1 ± 0.024
GGGTTTGGAA	0.961 ± 0.027
ACGATGATCT	1.06 ± 0.019
TTTTAACTCT	1.05 ± 0.015
CATTGTGGTA	1.014 ± 0.0033
GAGGGGCCGA	0.973 ± 0.016
ACCGGGGGCT	1.034 ± 0.0052

Sequence	switch fluorescence ratio
AATTTGATGC	0.985 ± 0.018
AAAGGATCGT	1.01 ± 0.02
ATAGGGAGAG	0.987 ± 0.016
GCTCTCTTTT	0.9805 ± 0.0037
GTTGTGAGAG	0.999 ± 0.054
CCAGGTTTGT	1.17 ± 0.016
TTGGTGCTGG	1.01 ± 0.027
ATGCTCAGTT	0.9836 ± 0.0062
GAGAGTATAA	0.99 ± 0.022
ATTGACGTAC	1.76 ± 0.083
CGGCCTGCG	1.02 ± 0.1
GGGGTAGAAG	1.004 ± 0.0016
GATGATGAGG	0.9961 ± 0.0073
AGCTTGGGGG	0.995 ± 0.027
CCTGAGTCTG	1.57 ± 0.038
TTCGTATCAG	1.02 ± 0.035
TGGTTAACTG	1.13 ± 0.16
GGGTCATGTT	1 ± 0.015
CGGCCGAACT	1.033 ± 0.0064
TCAACGGGTA	1.01 ± 0.021
TCAGGATTGT	0.967 ± 0.031
TGGGTGGGGA	1 ± 0.036
CGGATTCGGA	1.012 ± 0.01
ACCCGCCTTT	1.086 ± 0.0021
TGGGTATTAG	0.992 ± 0.054

Sequence	switch fluorescence ratio
GGTCGTAAGT	0.988 ± 0.026
TAAAAAGACG	1.04 ± 0.075
CGGTATATGG	0.962 ± 0.013
CAAAGAAAAT	0.9943 ± 0.0062
GAGAAGGAGG	1.01 ± 0.012
CAAAGGGGTG	1.03 ± 0.044
AATGGGGGGA	0.998 ± 0.057
GGCGGCTTGG	1.005 ± 0.0031
GCCGTGAGAG	0.9842 ± 0.0013
CGGTCCGGTG	1.04 ± 0.026
TAGTAGATTC	1.005 ± 0.0054
TGAAAAAGTG	0.9941 ± 0.0077
TTTGAGAAAG	0.992 ± 0.019
TTTGCGGAGG	1.27 ± 0.48
CACGCGAGGA	1.12 ± 0.12
GCAGCTTTTA	1.09 ± 0.018
GCGCGGGGTA	0.997 ± 0.029
GGATGCATTG	0.972 ± 0.011
ATCGAAGGTA	0.985 ± 0.013
TAATCATGGT	0.969 ± 0.024
TTTAATGCAA	1.05 ± 0.033
GATGCCGGCA	0.98 ± 0.065
GTTGGAGGA	1.04 ± 0.061
ATGGGGGCCA	0.974 ± 0.019
ACAGAATAGG	1.018 ± 0.0027

Sequence	switch fluorescence ratio
GGATAGGATG	0.974 ± 0.022
TATGTACTAT	1.08 ± 0.029
CGGGTCTTGT	0.98864 ± 0.00032
TTATTAAAAC	0.999 ± 0.013
TCCTGAAATT	0.987 ± 0.015
TAGATGATGT	1.004 ± 0.01
CAGGGATTTT	0.98 ± 0.022
CGGGTTCCGA	0.998 ± 0.024
TTGGTTGAAT	0.998 ± 0.011
GCGCAAATCG	1.009 ± 0.01
ACTTTGGCGT	1.03 ± 0.014
AAAGTATTTG	1.01 ± 0.05
GTTTTCCGTC	1 ± 0.013
AAAGATAGGG	1.01 ± 0.018
ATTGTTGAAT	0.993 ± 0.015
GGGTACTATT	0.982 ± 0.031
TAAGAGGTGT	1.04 ± 0.062
GGGTTTTTGT	1.04 ± 0.055
TAACTGGTAC	1.13 ± 0.05
GGGGTTGGCG	1.117 ± 0.0064
ACGGGTCCGG	1.02 ± 0.011
ATTAGAAGGT	0.994 ± 0.051
GATTAAACGG	1.04 ± 0.04
GCCTTCCGTT	1.39 ± 0.49
TTCCTCGGGT	1.03 ± 0.014

Sequence	switch fluorescence ratio
GGTTACCAGA	0.9973 ± 0.0065
GGCTTTTACT	1.04 ± 0.019
TATCATGGGA	0.9982 ± 0.0087
AACGGGCTAG	0.999 ± 0.014
TCGTACAGGG	1.03 ± 0.047
CAGTGAGGGG	0.984 ± 0.029
CAGAGGAGGT	0.982 ± 0.017
TTTGTAGTTT	1.03 ± 0.055
AAGGGCGGGA	1.02 ± 0.086
TATGAGCGCT	1.03 ± 0.054
ACGATCAGCG	1.022 ± 0.0037
GGGTACGGGA	1.06 ± 0.069
GGGGCGCCTG	1.01 ± 0.048
TTTGCCCCTG	1.03 ± 0.021
TAGGTATGTG	1.03 ± 0.049
TTAGATCATG	1.01 ± 0.023
AGGGGTTAAA	1.01 ± 0.022
TGCAGGGCGG	0.9806 ± 0.0017
TCGTTTGGGG	1.05 ± 0.061
CTTTGGGGGG	0.982 ± 0.025
TTATAGCCTT	1.04 ± 0.046
TTCTAATTTT	0.995 ± 0.027
CGTCATCAGG	1.042 ± 0.0069
TACCACCGGT	1.02 ± 0.047
CGTCAGCGGC	1.25 ± 0.053

Sequence	switch fluorescence ratio
AGAAGGGTTA	1.01 ± 0.017
GGGGGGGACA	0.984 ± 0.031
GGGTACGCAC	1.82 ± 0.034
CAACATCTAT	1.02 ± 0.053
AACTGAAGTG	0.984 ± 0.023
TACTAGGTTT	0.977 ± 0.019
TGATATGTTT	1.006 ± 0.002
TAAACGGGGT	1.03 ± 0.032
TCGGATGAGG	1 ± 0.042
GTAATGGGGA	1.02 ± 0.015
GGCATTATAA	0.99 ± 0.025
TAATGTGTGT	1.016 ± 0.0091
GGGGGGGAGG	0.993 ± 0.029
GATGGAGGAG	1.03 ± 0.027
TTTCGTTGCT	0.994 ± 0.018
TAGGATGGTT	0.984 ± 0.013
TTATTAGTTA	0.988 ± 0.011
CGTTCTAGTT	1.001 ± 0.01
TTGGATACGT	1.03 ± 0.091
AAAAAATCGC	1.09 ± 0.16
TTTCGAGTCA	1 ± 0.03
ACTCTGGGTC	1.07 ± 0.016
TACTTGGGTC	1.06 ± 0.03
TTGAGGATGT	1 ± 0.034
CTAGGGGGGA	0.997 ± 0.0052

Sequence	switch fluorescence ratio
GGACGGGTGC	1.1 ± 0.088
GATAAGGAAG	1.02 ± 0.011
CTAATGGACA	1.01 ± 0.025
CGGGCAATCA	1.58 ± 0.11
ATGAATCGTC	0.9927 ± 0.0037
TTAAGTAGTA	0.9679 ± 0.0025
CGGGTGGTAT	0.991 ± 0.023
AGGGGAGTCG	0.987 ± 0.021
AGATCGACGG	1.014 ± 0.0095
TGACTTTCGC	1.06 ± 0.028
TTATAATCCG	0.988 ± 0.031
TTGGGGACTT	1.02 ± 0.07
GCGGGGGACT	0.997 ± 0.016
CTGGTAATAT	1.15 ± 0.041
TTCTTTGTTT	1.01 ± 0.024
CGTGCTTGTA	1.01 ± 0.025
TTTGGACATC	1.02 ± 0.027
CAATATAGGT	0.967 ± 0.018
GCCGTCTGCG	0.957 ± 0.011
ATTTTAATAA	0.99 ± 0.017
GAAGGTATAC	1.66 ± 0.18
GCCCTGGTGT	5.93 ± 0.54
GAGGGTCAAA	1.004 ± 0.01
AAGGCGAGAC	1.06 ± 0.023
CCGGTCTACA	1.05 ± 0.047
